Assays:
MS2 coat protein [1] = test: apparent KD of MS2 coat protein, switch ON state; designed switch direction (-1 OFF switch, 1 ON switch): 1; higher = weaker reporter binding; settings: FMN input: 0 or 200 uM; Eterna round: R93 (includes R88 designs)
How it was run: (§1)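 Values are apparent KD, taken as the median for each design of fits to normalised binding curves from individual clusters. The designed RNA switches were transcribed on-chip from Illumina sequencing clusters and exposed to SNAP-549-labelled MS2 coat protein at twofold increasing amounts from 0.7 or 1.5 nM to 3 µM. Titration used 100 mM Tris-HCl pH 7.5, 80 mM KCl and 4 mM MgCl2, without or with constant ligand.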

MS2 coat protein [2] = test: apparent KD of MS2 coat protein, switch OFF state (with FMN for OFF switches, without FMN for ON switches); designed switch direction (-1 OFF switch, 1 ON switch): 1; higher = weaker reporter binding; settings: FMN input: 0 or 200 uM; Eterna round: R93 (includes R88 designs)
How it was run: as §1

Sequence: CAUCAACAUGAGGAUCACCCAUGUCAGUGAUGUCAAGGAUAUGGGAGACAUAAAAUUCUUCUAGAAGGUGAAAGAU [Orlaanar]
- apparent KD of MS2 coat protein (MS2 coat protein [1]): 209 nM
- apparent KD of MS2 coat protein (MS2 coat protein [2]): 125 nM

Sequence: AAAAGACAUGAGGAUCACCCAUGUGAAAACGUGCGAGGAUAUGUAUGGAAACCAUACUGUACAGAAGGCGCGUGUC [SS1 - 83]
- apparent KD of MS2 coat protein (MS2 coat protein [1]): 24.4 nM
- apparent KD of MS2 coat protein (MS2 coat protein [2]): 32.3 nM

Sequence: GAAAAACAUGAGGAUCACCCAUGUGAAAACUUGGGAGGAUAUACAAAGACGAAAGUCGAAGUAGAAGGCCUAAAAG [Same State 1.4k (Mat - Mod of Eli - )]
- apparent KD of MS2 coat protein (MS2 coat protein [1]): 17.2 nM
- apparent KD of MS2 coat protein (MS2 coat protein [2]): 106 nM

Sequence: GAAAAACAUGAGGAUCACCCAUGUAAUACAACGUCAGGAUAUUGAUUUUAUUAUGUAUUGCAAGAAGGGACAAAAG [Mat - Same State 1 - Hyphema mod - D99]
- apparent KD of MS2 coat protein (MS2 coat protein [1]): 95.2 nM
- apparent KD of MS2 coat protein (MS2 coat protein [2]): 49.4 nM

Sequence: AGAAAACAUGAGGAUCACCCAUGUAGAAAUAUGGGAGGAUAUACAAGGACGAAAGUCAAGGUAGAAGGCCUAAAGA [Mat - Same State 1 - Meechl mod - D127]
- apparent KD of MS2 coat protein (MS2 coat protein [1]): 22.8 nM
- apparent KD of MS2 coat protein (MS2 coat protein [2]): 88.4 nM

Sequence: AAUACACAUGGUCAGGAUAUCGCAGCUAGGACAUGAGGAUCACCCAUGUAAUAAGUAAAAGUAAAUGAGAAGGGACAGGGUGACC [JR_SS002_Sub405]
- apparent KD of MS2 coat protein (MS2 coat protein [1]): 520 nM
- apparent KD of MS2 coat protein (MS2 coat protein [2]): 206 nM

Sequence: GAGAAACAUGAGGAUCACCCAUGUAGAAAUAUGGGAGGAUAUACAGAGACGAGAGUCAAAGUAGAAGGCCUAGAAG [77%, Mat - Mod of Eli - With 4 more G's]
- apparent KD of MS2 coat protein (MS2 coat protein [1]): 32.1 nM
- apparent KD of MS2 coat protein (MS2 coat protein [2]): 66.1 nM

Sequence: AAAAAACAUGAGGAUCACCCAUGUCAAAAGACGUGAGGAUAUGUACAGACUUCGGUCUGUACAGAAGGCACGUCAA [SS1 - 1043]
- apparent KD of MS2 coat protein (MS2 coat protein [1]): 15.9 nM
- apparent KD of MS2 coat protein (MS2 coat protein [2]): 20.4 nM

Sequence: GAAAUACAUGAGGAUCACCCAUGUUAGGUGGGUCAAGGAUAUUAAGGUAAAUAAAAACCUUGAGAAGGUGAAUAAA [JR_SS001_Sub203]
- apparent KD of MS2 coat protein (MS2 coat protein [1]): 157 nM
- apparent KD of MS2 coat protein (MS2 coat protein [2]): 239 nM

Sequence: AUAUGAUCAUGUGAGGAUAUCCAUAAUAAAACAUGAGGAUCACCCAUGUAUAGAUAAUAAUAAUGGGAGAAGGCACAUGAUCAAU [SS 2 M41]
- apparent KD of MS2 coat protein (MS2 coat protein [1]): 21.6 nM
- apparent KD of MS2 coat protein (MS2 coat protein [2]): 17.9 nM

Sequence: GGGAGGAAGAGAGAGGAUAUCCAAAGGAAAACAUGAGGAUCACCCAUGUAAAAGGUAGGAAAUUGGGAGAAGGCUCAAGAGACCG [salish99-ss2-057]
- apparent KD of MS2 coat protein (MS2 coat protein [1]): 34.2 nM
- apparent KD of MS2 coat protein (MS2 coat protein [2]): 37.9 nM

Sequence: AAUAUAUUAAGUGAGGAUAUCAAGAAAAAAACAUGAGGAUCACCCAUGUGGGAAACAUGGUAGGGUGAGAAGGUACUUAAUAUAU [Samwise Clockwise 21 - Jieux - Same State 2]
- apparent KD of MS2 coat protein (MS2 coat protein [1]): 228 nM
- apparent KD of MS2 coat protein (MS2 coat protein [2]): 691 nM

Sequence: AAAAAGUGAUGGUAGGAUAUUGGAAAAGCCACAUGAGGAUCACCCAUGUCAAAAAACCUAAAAAACAAGAAGGGCUGUUAUAAAAA [Same State 2.2]
- apparent KD of MS2 coat protein (MS2 coat protein [1]): 18.6 nM
- apparent KD of MS2 coat protein (MS2 coat protein [2]): 24.7 nM

Sequence: AAACCACAUGAGGAUCACCCAUGUAAAAAUAUGGAAGGAUAUGCGAAAAGAAACAAAGAAGCAGAAGGUCUAAAAA [75%, Ex sub1, 20]
- apparent KD of MS2 coat protein (MS2 coat protein [1]): 15.2 nM
- apparent KD of MS2 coat protein (MS2 coat protein [2]): 27.7 nM

Sequence: AAAAAACAUGAGGAUCACCCAUGUAUAAAAAUGGGAGGAUAUACUAAGACGAAAGUCAUAGUAGAAGGUCUAAAAA [76%, Meechl, 11]
- apparent KD of MS2 coat protein (MS2 coat protein [1]): 137 nM
- apparent KD of MS2 coat protein (MS2 coat protein [2]): 241 nM

Sequence: AACAAUCUAUCUGAGGAUAUCAUGUAAAAGACAUGAGGAUCACCCAUGUAGCAGGAAACUGCAUAUGAGAAGGCAGAUAGAUUGA [SS2: 1120]
- apparent KD of MS2 coat protein (MS2 coat protein [1]): 18.4 nM
- apparent KD of MS2 coat protein (MS2 coat protein [2]): 21.3 nM

Sequence: AAGAAAGAAACGCAGGAUAUGCAAAACAAAACAUGAGGAUCACCCAUGUCUUACUUACAAACAAAGCAGAAGGGCGAAAGAAAGAA [Same State 2 B]
- apparent KD of MS2 coat protein (MS2 coat protein [1]): 16.4 nM
- apparent KD of MS2 coat protein (MS2 coat protein [2]): 20 nM

Sequence: AGAAAUAAAGCUGAGGAUAUGGGAAAAUUCACAUGAGGAUCACCCAUGUAAAAGAAAAUAAAAAACCAGAAGGCAGCAAAUAAGA [Designing denovo 6]
- apparent KD of MS2 coat protein (MS2 coat protein [1]): 27.6 nM
- apparent KD of MS2 coat protein (MS2 coat protein [2]): 49.8 nM

Sequence: AAAAAACAUGAGGAUCACCCAUGUGCAAAAUUCGCAGGAUAUUCUUUUUUUAAAUGAGAGGGAGAAGGGUGUAAAA [Nob's Hobby 21 - Jieux - Same State 1]
- apparent KD of MS2 coat protein (MS2 coat protein [1]): 25.5 nM
- apparent KD of MS2 coat protein (MS2 coat protein [2]): 22.4 nM

Sequence: UAUUAUUACACGAAGGAUAUCGAUAAUAGUACAUGAGGAUCACCCAUGUUCAUAUCAUUUUAGUUCGAGAAGGUCGAGGGUGAAG [JR_SS002_Sub709]
- apparent KD of MS2 coat protein (MS2 coat protein [1]): 23.9 nM
- apparent KD of MS2 coat protein (MS2 coat protein [2]): 20.1 nM

Sequence: AAAAAAAAAGUAGAGGAUAUCCAAAUGGCUACAUGAGGAUCACCCAUGUGAAGAAAAGCACAUGAGGAGAAGGCUACAAAAAAAAA [Blender bender]
- apparent KD of MS2 coat protein (MS2 coat protein [1]): 12.1 nM
- apparent KD of MS2 coat protein (MS2 coat protein [2]): 21.7 nM

Sequence: AACAAUCUAUCUGAGGAUAUAUGUCAAAAGACAUGAGGAUCACCCAUGUAAAAACAUGAAAAGACAUAGAAGGCAGAUAGAUUGA [SS2: 1133]
- apparent KD of MS2 coat protein (MS2 coat protein [1]): 25.4 nM
- apparent KD of MS2 coat protein (MS2 coat protein [2]): 35.1 nM

Sequence: AAAAAACAUGAGGAUCACCCAUGUCUUCGGACAUGAGGAUAUGUACAGACUUCGGUCUGUACAGAAGGCAUGAAAA [SS1 - 1013]
- apparent KD of MS2 coat protein (MS2 coat protein [1]): 256 nM
- apparent KD of MS2 coat protein (MS2 coat protein [2]): 39.5 nM

Sequence: AGGAAACAUGAGGAUCACCCAUGUAAAAAUAACACAGGAUAUGGAAACACGAAAGUGAAACCAGAAGGGUGAAAAG [77%, Mat - Mod of Eli, 16]
- apparent KD of MS2 coat protein (MS2 coat protein [1]): 17.8 nM
- apparent KD of MS2 coat protein (MS2 coat protein [2]): 26.1 nM

Sequence: CGAAAGGAGAGAGAGGAUAUCCAAAGGAAAACAUGAGGAUCACCCAUGUAGAAGGUAGGAGAUUGGGAGAAGGCUCAAGCUAAAC [salish99-ss2-158]
- apparent KD of MS2 coat protein (MS2 coat protein [1]): 40.2 nM
- apparent KD of MS2 coat protein (MS2 coat protein [2]): 37.3 nM

Sequence: AAACCACAUGAGGAUCACCCAUGUAAAAAAUAUGGAGGAUAUACUAGAAGAAACAAAAUAGUAGAAGGCCAAAAAA [75%, Ex sub1, 29]
- apparent KD of MS2 coat protein (MS2 coat protein [1]): 20.3 nM
- apparent KD of MS2 coat protein (MS2 coat protein [2]): 24.6 nM

Sequence: AACAAUCUAUCUGAGGAUAUGUGUCAAAAGACAUGAGGAUCACCCAUGUAAAAACAUGGAAAAACACAGAAGGCAGAUAGAUUGA [SS2: 1149]
- apparent KD of MS2 coat protein (MS2 coat protein [1]): 62.1 nM
- apparent KD of MS2 coat protein (MS2 coat protein [2]): 75.4 nM

Sequence: AAUAUAUUAAGUGAGGAUAUCAUAGGAAAAACAUGAGGAUCACCCAUGUGGGAAACCUGGUCGGGUGAGAAGGUGCUUAAUAUAU [Samwise Clockwise 32 - Jieux - Same State 2]
- apparent KD of MS2 coat protein (MS2 coat protein [1]): 50.6 nM
- apparent KD of MS2 coat protein (MS2 coat protein [2]): 235 nM

Sequence: GAAAAACAUGAGGAUCACCCAUGUAGAAAUAUGGGAGGAUAUACAAACUCGAAAGUCAAAGUAGAAGGCCUAAAAG [Garnet 29]
- apparent KD of MS2 coat protein (MS2 coat protein [1]): 107 nM
- apparent KD of MS2 coat protein (MS2 coat protein [2]): 224 nM

Sequence: AAAAACAUGGUGUAGGAUAUAUUAAUAGUCACAUGAGGAUCACCCAUGUUCAUAUAUAUGAACGAGUAGAAGGACGAUGAAAAAA [Mat - Same state - Malcolm Mod - D108]
- apparent KD of MS2 coat protein (MS2 coat protein [1]): 244 nM
- apparent KD of MS2 coat protein (MS2 coat protein [2]): 237 nM

Sequence: AAAAAACAUGAGGAUCACCCAUGUCAAAAGACAUGAGGAUAUGUACAGACUUCGGUCUGUACAGAAGGCAUGAAAA [SS1 - 1011]
- apparent KD of MS2 coat protein (MS2 coat protein [1]): 31.6 nM
- apparent KD of MS2 coat protein (MS2 coat protein [2]): 524 nM

Sequence: AAAAUAAAAAGGUAGGAUAUGGGUAAACCUACAUGAGGAUCACCCAUGUAAUAAAAAGAAAAAAACCAGAAGGACCAAAAUAAAA [72%, More Wateronthemoon, 9]
- apparent KD of MS2 coat protein (MS2 coat protein [1]): 12.8 nM
- apparent KD of MS2 coat protein (MS2 coat protein [2]): 55.2 nM

From the supplement of paper PMC9170038
